Patent publication US6420345 (CELL GENESYS, dated 2002)

Experiments:
CDK4/cyclin D1 complex [1] = molecular target: T1, CDK4/cyclin D1 complex (UniProt P11802 1-303; P24385 1-295); assay: cell-based or functional assay
CDK2/cyclin E complex = CDK2/cyclin E complex (UniProt P24941 1-298; P24864 16-410); assay: cell-based or functional assay
CDK2/cyclin A complex = CDK2/cyclin A complex (UniProt P24941 1-298; P20248 1-432); assay: cell-based or functional assay
CDC2/cyclin B complex = CDC2/cyclin B complex (UniProt P06493 1-297; P14635 1-433); assay: cell-based or functional assay
CDK4/cyclin D1 complex [2] = molecular target: T1, CDK4/cyclin D1 complex; assay: in vitro kinase inhibition assay (32P incorporation into GST-Rb)
Procedure: Partial purification of CDK4/cyclin D1 was achieved by a 20–40% ammonium sulfate preparation of the cell lysate and was used in the assays. […] These assays were carried out in 96 well plates (Nunc, Naperville, Ill.) and monitored by γ-^32P-ATP incorporation.
The concentrations of GST-Rb and histone H1 were 4.4 mM and 19 mM, respectively, and the concentration of ATP was 50–60 mM. The reaction mixtures contained 50 mM Tris-Cl pH 7.5, 10 mM MgCl_2, and 1 mM DTT in a total volume of 50 or 100 µl. After incubation at 30° C. for 10–20 minutes, the reaction was terminated by the addition of a stop solution containing EDTA. The phosphorylated substrates were captured either by GST-Sepharose or TCA precipitation and then monitored for radioactivity (Microplate Scintillation Counter, Packard, Meriden, Conn.).

T1 sequence (P11802 whole entry, chain 1 of 2): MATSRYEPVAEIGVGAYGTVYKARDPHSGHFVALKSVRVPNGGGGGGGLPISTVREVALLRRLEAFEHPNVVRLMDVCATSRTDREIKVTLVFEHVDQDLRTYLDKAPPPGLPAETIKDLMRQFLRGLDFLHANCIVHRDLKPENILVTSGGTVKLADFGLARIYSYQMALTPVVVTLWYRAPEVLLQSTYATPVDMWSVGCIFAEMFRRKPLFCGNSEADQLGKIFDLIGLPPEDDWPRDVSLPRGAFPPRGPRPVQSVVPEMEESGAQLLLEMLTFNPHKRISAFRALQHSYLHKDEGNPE
T1 sequence (P24385 whole entry, chain 2 of 2): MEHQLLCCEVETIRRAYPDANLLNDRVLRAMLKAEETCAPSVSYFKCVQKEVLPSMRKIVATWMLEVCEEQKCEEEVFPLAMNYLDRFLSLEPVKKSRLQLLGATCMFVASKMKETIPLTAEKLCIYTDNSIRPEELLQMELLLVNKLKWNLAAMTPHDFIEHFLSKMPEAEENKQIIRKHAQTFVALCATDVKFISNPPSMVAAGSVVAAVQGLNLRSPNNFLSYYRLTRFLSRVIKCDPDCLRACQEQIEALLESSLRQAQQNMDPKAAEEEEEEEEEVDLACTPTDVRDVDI
Chain of CDC2/cyclin B complex (P06493 whole entry, chain 1 of 2): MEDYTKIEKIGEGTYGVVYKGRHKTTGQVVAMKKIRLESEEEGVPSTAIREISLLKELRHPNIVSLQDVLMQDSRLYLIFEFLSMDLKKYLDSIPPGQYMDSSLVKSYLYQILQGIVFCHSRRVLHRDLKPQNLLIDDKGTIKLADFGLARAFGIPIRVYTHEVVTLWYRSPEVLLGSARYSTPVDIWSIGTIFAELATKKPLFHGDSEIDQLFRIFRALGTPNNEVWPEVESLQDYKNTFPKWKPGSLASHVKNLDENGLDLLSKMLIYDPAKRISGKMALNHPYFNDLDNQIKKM
Chain of CDC2/cyclin B complex (P14635 whole entry, chain 2 of 2): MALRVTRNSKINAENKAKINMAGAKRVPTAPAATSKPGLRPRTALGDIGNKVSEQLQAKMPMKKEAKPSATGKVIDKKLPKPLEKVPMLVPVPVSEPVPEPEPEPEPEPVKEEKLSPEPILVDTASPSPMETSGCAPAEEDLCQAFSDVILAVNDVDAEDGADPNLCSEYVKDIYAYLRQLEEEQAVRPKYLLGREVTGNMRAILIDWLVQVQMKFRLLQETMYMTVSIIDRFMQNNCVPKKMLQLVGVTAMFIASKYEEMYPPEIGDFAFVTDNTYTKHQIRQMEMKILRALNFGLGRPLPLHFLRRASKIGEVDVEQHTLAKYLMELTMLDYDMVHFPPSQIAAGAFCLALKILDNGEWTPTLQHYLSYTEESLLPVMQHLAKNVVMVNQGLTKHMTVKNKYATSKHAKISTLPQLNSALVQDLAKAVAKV

- IC50, in vitro kinase assay (CDK4/cyclin D1 complex [1]): 250 nM
- IC50, in vitro kinase assay (CDK2/cyclin E complex): > 500 nM
- IC50, in vitro kinase assay (CDK2/cyclin A complex): > 500 nM
- IC50, in vitro kinase assay (CDC2/cyclin B complex): > 500 nM
- Ki (CDK4/cyclin D1 complex [2]): 75 nM
B1: human p16 (other)
chain: MEPAAGSSMEPSADWLATAAARGRVEEVRALLEAGALPNAPNSYGRRPIQVMMMGSARVAELLLLHGAEPNCADPATLTRPVHDAAREGFLDTLVVLHRAGARLDVRDAWGRLPVDLAEELGHRDVARYLRAAAGGTRGSNHARIDAAEGPSDIPD
notes: also called p16INK4
